The record followed here is patent US20260232732A1 (FUNDACI INSTITUT DE RECERCA CONTRA LA LEUC MIA JOSEP …, published 2026).

Assay [1] has as its target T1, Peptide 3-BSA (SSMEDYVNFN-C conjugated to BSA) (human).
T1 peptide: SSMEDYVNFNC(BSA)
Description: ELISA; Ab 0.25 ug/mL; repII. Here is the method: (§1) In brief, plates with each non-conjugated peptide (50 μg/mL) or BSA-conjugated peptide (5 μg/mL) were coated in 0.58M carbonate-bicarbonate buffer pH9.5, 100 μL/well, at 4° C. […] After washing, wells were incubated with the 3, 3′,5,5′-Tetramethylbenzidine (TMB) HRP substrate and reactions were stopped with 2M HCl and OD450 was recorded.

The target of assay [2] is T2, Peptide 4-BSA (SMEDYVNFNF-C conjugated to BSA) (human).
T2 peptide: SMEDYVNFNFC(BSA)
Briefly: ELISA; Ab 0.25 ug/mL; repII. The procedure:
as §1

Assay [3] concerns the target T3, Peptide 1, non-conjugated (MADDYGSEST-C) (human).
T3 construct: With the extra C-terminal Cys
T3 peptide: MADDYGSESTC
Description: ELISA; Ab 0.25 ug/mL; repII. The procedure:
as §1

The target in assay [4] is T4, Peptide 3, non-conjugated (SSMEDYVNFN-C) (human).
T4 construct: With the extra C-terminal Cys
T4 peptide: SSMEDYVNFNC
Description: ELISA; Ab 0.25 ug/mL; repII. Here is the method:
as §1

The target in assay [5] is T5, BSA (negative control coating) (bovine, UniProt P02769 25-607).
T5 construct: also called Negative control BSA
T5 sequence (P02769 25-607 limits assumed): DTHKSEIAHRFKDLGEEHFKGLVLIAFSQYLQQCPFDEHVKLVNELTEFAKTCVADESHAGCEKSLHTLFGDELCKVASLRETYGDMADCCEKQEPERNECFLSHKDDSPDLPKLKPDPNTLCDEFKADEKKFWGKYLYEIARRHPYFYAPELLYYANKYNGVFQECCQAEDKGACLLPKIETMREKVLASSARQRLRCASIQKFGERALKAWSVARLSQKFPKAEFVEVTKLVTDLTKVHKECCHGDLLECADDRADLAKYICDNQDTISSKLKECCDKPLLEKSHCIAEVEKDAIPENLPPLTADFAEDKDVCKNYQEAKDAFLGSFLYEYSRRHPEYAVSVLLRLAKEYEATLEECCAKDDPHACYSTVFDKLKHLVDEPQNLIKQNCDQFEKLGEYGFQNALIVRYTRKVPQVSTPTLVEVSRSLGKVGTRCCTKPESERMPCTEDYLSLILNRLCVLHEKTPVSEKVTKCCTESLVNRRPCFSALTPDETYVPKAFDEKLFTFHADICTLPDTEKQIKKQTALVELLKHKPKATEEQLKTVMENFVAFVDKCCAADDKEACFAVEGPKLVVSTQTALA
Briefly: ELISA; Ab 0.25 ug/mL; repII. The procedure: as §1

For assay [6], the target named is T6, Peptide 1-BSA (MADDYGSEST-C conjugated to BSA) (human).
T6 peptide: MADDYGSESTC(BSA)
Description: ELISA; Ab 0.25 ug/mL; repII. The procedure: as §1

Assay [7] deals with T7, Peptide 2-BSA (GSESTSSMED-C conjugated to BSA) (human).
T7 peptide: GSESTSSMEDC(BSA)
Briefly: ELISA; Ab 0.25 ug/mL; repII. The procedure: as §1

Assay [8] has as its target T1, Peptide 3-BSA (SSMEDYVNFN-C conjugated …). Briefly: ELISA; Ab 0.0625 ug/mL; repI. The procedure: as §1
The target in assay [9] is T2, Peptide 4-BSA (SMEDYVNFNF-C conjugated …). Description: ELISA; Ab 0.0625 ug/mL; repI. Here is the method: as §1
For assay [10], the target named is T3, Peptide 1, non-conjugated (MADDYGSEST-C). Description: ELISA; Ab 0.0625 ug/mL; repI. The procedure: as §1
Assay [11] has as its target T8, Peptide 2, non-conjugated (GSESTSSMED-C) (human).
T8 construct: With the extra C-terminal Cys
T8 peptide: GSESTSSMEDC
Briefly: ELISA; Ab 0.0625 ug/mL; repI. Here is the method: as §1

Assay [12] has as its target T4, Peptide 3, non-conjugated (SSMEDYVNFN-C). Description: ELISA; Ab 0.0625 ug/mL; repI. The procedure: as §1
Assay [13] deals with T9, Peptide 4, non-conjugated (SMEDYVNFNF-C) (human).
T9 construct: With the extra C-terminal Cys
T9 peptide: SMEDYVNFNFC
Briefly: ELISA; Ab 0.0625 ug/mL; repI. The procedure: as §1

Assay [14] concerns the target T5, BSA (negative control coating). Description: ELISA; Ab 0.0625 ug/mL; repI. The procedure: as §1
Assay [15] deals with T10, antigen peptide-BSA (immunisation peptide #1 MADDYGSESTSSMEDYVNFNF-C conjugated to BSA) (human, extra C-terminal Cys conjugated to BSA).
T10 construct: also called Positive control antigen peptide-BSA; MADDY peptide
T10 peptide: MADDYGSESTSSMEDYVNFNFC
Description: ELISA; Ab 0.0625 ug/mL; repI. Here is the method:
as §1

Assay [16] deals with T6, Peptide 1-BSA (MADDYGSEST-C conjugated …). Description: ELISA; Ab 0.0625 ug/mL; repI. Here is the method:
as §1

Assay [17] addresses T7, Peptide 2-BSA (GSESTSSMED-C conjugated …). Description: ELISA; Ab 0.0625 ug/mL; repI. The procedure: as §1

Where no end group is shown, it is not given here.

B1: anti-CCR9 antibody clone 115 (murine, from hybridoma #115) (antibody, V domains shown)
VH: QVQLKQSGPELVKPGTSVRVSCTASGYSFTDYIIYWVKQSHGRSLEWIGYIDPNNYNTRYSQKFKGKATLTVDKSSTSAFMHLNSLTSDDSAVYYCARDVYWGQGTTLTVSS
VL: DVVMTQTPLSLTVSLGDQASISCRSSQSLVHSNGKTYLQWYLQKPGQSPKLLIYKVSNRFSGVPDRFSGSGSGTDFTLKISRVEAEDLGVYFCAQSTHVWTFGGGTKLEIKR
notes: Mouse IgG1
For B1, the OD450 in assay [1] turned out to be 2.05 OD; in assay [2] it was 2.53 OD; in assay [3] it was 0.02 OD; in [4], 1.8 OD; in [5] it was 0.02 OD; in [6], 0.02 OD. The OD450 in [7] came out at 0.02 OD; in assay [8], 1.88 OD; in assay [9], 1.98 OD; in assay [10] it was 0.01 OD; in [11], 0.01 OD; in assay [12] it was 1.83 OD. In addition, the OD450 in assay [13] was determined as 1.14 OD; in [14], 0.01 OD; in [15], 1.84 OD; in assay [16], 0.01 OD; in assay [17] it was 0.01 OD.
